Positions count from the first letter of the chain named.

Test [1] concerns the target MAdCAM-IgG1 Fc fusion protein (human). Put plainly: cell-based or functional assay.
Test [2] has as its target T1, recombinant mouse MAdCAM (mouse, UniProt Q61826 22-365).
T1 sequence (looked up): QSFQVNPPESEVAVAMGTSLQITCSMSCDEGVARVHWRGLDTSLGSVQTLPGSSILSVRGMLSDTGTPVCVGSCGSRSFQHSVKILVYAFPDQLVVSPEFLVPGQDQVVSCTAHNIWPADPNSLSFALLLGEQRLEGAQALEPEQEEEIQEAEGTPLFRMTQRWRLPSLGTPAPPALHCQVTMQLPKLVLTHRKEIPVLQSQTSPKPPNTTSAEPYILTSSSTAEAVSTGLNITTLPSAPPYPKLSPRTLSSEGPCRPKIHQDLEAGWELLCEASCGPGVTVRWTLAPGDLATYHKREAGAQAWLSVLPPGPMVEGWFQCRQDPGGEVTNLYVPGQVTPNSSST
Briefly: ELISA.

The target in test [3] is T2, human MAdCAM (full length) (human, UniProt Q13477 19-382).
T2 sequence (looked up): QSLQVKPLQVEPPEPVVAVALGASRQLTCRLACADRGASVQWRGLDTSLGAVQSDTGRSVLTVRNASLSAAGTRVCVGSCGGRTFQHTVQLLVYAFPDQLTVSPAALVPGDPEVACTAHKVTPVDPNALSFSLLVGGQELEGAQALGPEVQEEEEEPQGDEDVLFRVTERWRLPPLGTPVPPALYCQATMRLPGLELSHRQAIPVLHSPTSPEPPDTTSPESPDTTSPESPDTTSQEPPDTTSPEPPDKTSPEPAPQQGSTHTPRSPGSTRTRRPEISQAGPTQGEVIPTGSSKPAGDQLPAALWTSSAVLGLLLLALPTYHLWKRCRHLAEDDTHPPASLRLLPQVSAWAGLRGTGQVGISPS
Put plainly: cell-based or functional assay.

The target of test [4] is T3, MAdCAM-IgG1 Fc fusion protein (human).
T3 construct: Made in CHO-DHFR cells; also called MAdCAM-IgFc
Put plainly: SPR BIAcore protocol 1: mAb captured, MAdCAM-IgG1 Fc injected. On the procedure: To perform kinetic analyses, a high density mouse anti-human (IgG₂ and IgG₄) antibody surface over a CMS BIAcore sensor chip was prepared using routine amine coupling. Hybridoma supernatants were diluted 10, 5, 2-fold in HBS-P (10 mM HEPES pH 7.4, 150 mM NaCl, 0.005% Surfactant P20) running buffer containing 100 μg/mL BSA and 10 mg/mL carboxymethyldextran or used neat. Each mAb was captured onto a separate surface using a […] contact time and a 5 mM wash for stabilization of the mAb baseline. MAdCAM-IgG₁ Fc (141 nM) fusion protein was then injected at over all surfaces for one minute, followed by a 3 mM dissociation. The data were normalized for the amount of antibody captured on each surface and evaluated with global fit Langmuir 1:1, using baseline drift models available on the BIAevaluation software provided by BIAcore.

Test [5] addresses T4, chimeric cynomolgus/human MAdCAM (cynomolgus; human, UniProt Q13477 226-382, limits assumed).
T4 sequence: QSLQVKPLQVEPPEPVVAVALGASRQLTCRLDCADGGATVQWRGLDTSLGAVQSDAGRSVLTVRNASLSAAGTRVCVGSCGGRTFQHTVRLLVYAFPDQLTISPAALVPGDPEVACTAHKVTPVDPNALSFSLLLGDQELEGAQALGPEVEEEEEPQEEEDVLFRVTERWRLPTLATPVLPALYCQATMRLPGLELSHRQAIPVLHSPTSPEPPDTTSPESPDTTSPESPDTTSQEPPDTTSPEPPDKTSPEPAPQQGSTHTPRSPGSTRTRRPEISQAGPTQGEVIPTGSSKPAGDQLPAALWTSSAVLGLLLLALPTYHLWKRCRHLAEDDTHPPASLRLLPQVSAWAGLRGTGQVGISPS
Put plainly: cell-based or functional assay.

Test [6] addresses T3, MAdCAM-IgG1 Fc fusion protein. Briefly: SPR BIAcore protocol 2: mAb amine-coupled, MAdCAM-IgG1 Fc injected. The protocol:
Affinity-purified mAb were immobilized onto the dextran layer of a CMS biosensor chip using amine coupling. […] Samples of MAdCAM-IgG₁ Fc fusion protein in running buffer were prepared at concentrations ranging from 0.2-55 nM (a 0 nM solution comprising running buffer alone was included as a zero reference). Samples were randomized and injected in duplicate for 3 mM each across 4 flow cells using HBS-EP (10 mM HEPES pH 7.4, 150 mM NaCl, 3 mM EDTA, 0.005% Surfactant P20) as running buffer. A flow rate of 100 μL/min was used to minimize mass transport limitations. Dissociation of MAdCAM-IgG₁ Fc fusion protein was monitored for 180 mins, the surface regenerated by a 6 sec injection of 25 mM H₃PO₄ (50 μL/min), or 10 mM (6.22.2), 20 mM (6.67.1, 6.73.2, 6.77.1) to 25 mM (6.34.2) and 45 mM NaOH (6.14.2) and the data analysed using the BIAevaluation (v3.1) software package.

For test [7] the target is unchanged. Briefly: cell-based or functional assay. The source holds these as a separate data set.

B1: modified anti-MAdCAM monoclonal antibody 7.26.4-mod (antibody, human IgG2, kappa, V domains shown)
VH: QVQLVQSGAEVKKPGASVKVSCEASGYTFTSYGIDWVRQAPGQGLEWMGWISVYSGNTNYAQKLQGRVTMSTDTSTSTAYMELRSLRSDDTAVYYCAREGSSSSGDYYYGMDVWGQGTTVTVSS
VL: DIVMTQTPLSLSVTPGQPASISCKSSQSLLYSDGKTYLFWYLQKPGQPPQLLIYEVSNRFSGVPDRFSGSGSGTDFTLKISRVEAEDVGVYYCMQSIQLPWTFGQGTKVEIKR
As for B1, the “MAdCAM IgG1 Fc fusion Assay Mean IC50 (Modified)” value in test [1] was determined as 0.033 µg/mL.

B2: modified anti-MAdCAM monoclonal antibody 6.77.1-mod (antibody, human IgG2, kappa, V domains shown)
VH: EVQLVESGGGLVKPGGSLRLSCAASGFTFSSYSMNWVRQAPGKGLEWVSSISSSSSYIYYADSVKGRFTISRDNAKNSLYLQMNSLRAEDTAVYYCARDGYSSGWSYYYYYGMDVWGQGTTVTVSS
VL: B1 VL with Y31L, F39N, Y92S, P100M, W101S, T102S, V109L
In the case of B2, the “MAdCAM IgG1 Fc fusion Assay Mean IC50 (Modified)” value in test [1] was found to be 0.077 µg/mL.

B3: anti-MAdCAM monoclonal antibody 6.77.1 (antibody, human IgG4, kappa, V domains shown)
VH: B2 VH
VL: B1 VL with K24N, Y31L, F39N, Y92S, P100M, W101C, T102S, V109L
notes: human IgG4 kappa from hybridoma 6.77.1
Consider B3, for which the binding result in test [2] was “no binding”. Also, the “Mean IC50, JY cell adhesion, MAdCAM FlpIn CHO Assay” value (from here on “Mean IC50 … MAdCAM FlpIn CHO Assay”) in test [3] is 0.52 µg/mL. In test [4], the Kd is at most 0.0067 nM, the koff is at most 1e-05 s⁻¹ and the kon was determined as 1.5e+06 M⁻¹ s⁻¹. In test [5], the “Functional IC50, cynomolgus/human MAdCAM-CHO/JY adhesion assay” value is 0.64 µg/mL.

B4: anti-MAdCAM monoclonal antibody 7.16.6 (antibody, human IgG2, kappa, V domains shown)
VH: B1 VH with E23K, D35N, L64V, S71T, T72A, E82D
VL: B1 VL with Y31H, S32T, K35T, F39Y, V90I, S96N
notes: Alexa488-labelled in the sandwich ELISA, biotinylated for staining of human sections
For B4, in test [2], the binding result is reported as “no binding”.

B5: modified anti-MAdCAM monoclonal antibody 6.22.2-mod (antibody, human IgG2, kappa, V domains shown)
VH: QVQLVESGGGVVQPGRSLRLSCAASGFTFSSDGMHWVRQAPGKGLEWVAIIWYDGSNKYYADSVKGRFTISRDNSKNTLYLQMNSLRAEDTAVYYCARDPGYYYGMDVWGQGTTVTVSS
VL: EIVLTQSPDFQSVTPKEKVTITCRASQRIGSSLHWYQQKPDQSPKLLIKYASQSFSGVPSRFSGSGSGTDFTLTINSLEAEDAATYYCHQSGRLPLTFGGGTKVEIKR
With B5, in test [1], the “MAdCAM IgG1 Fc fusion Assay Mean IC50 (Modified)” value came to 0.058 µg/mL.

B6: modified anti-MAdCAM monoclonal antibody 6.67.1-mod (antibody, human IgG2, kappa, V domains shown)
VH: QVQLQESGPGLVKPSETLSLTCTVSGDSISSNYWSWIRQPAGKGLEWIGRIYTSGGTNSNPSLRGRVTMSVDTSKNQFSLKLSSVTAADTAVYYCARDRITIIRGLIPSFFDYWGQGTLVTVSS
VL: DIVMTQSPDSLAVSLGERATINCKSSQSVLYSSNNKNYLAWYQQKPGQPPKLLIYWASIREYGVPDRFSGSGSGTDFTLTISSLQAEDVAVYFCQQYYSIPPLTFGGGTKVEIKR
Take B6: in test [1], the “MAdCAM IgG1 Fc fusion Assay Mean IC50 (Modified)” value came to 0.037 µg/mL.

B7: anti-MAdCAM monoclonal antibody 6.14.2 (antibody, human IgG4, kappa, V domains shown)
VH: EVQLLESGGGLVQPGGSLRLSCAASGLTFNNSAMTWVRQAPGKGLEWVSTTSGSGGTTYYADSVKGRFTISRDSPKNTLYLQMNSLRAEDTAVYYCAARGYSYGTTPYEYWGQGTLVTVSS
VL: DIQMTQSPSSLSASVGDRVTITCRASRSISSYLNWYQQKPGKAPKVLIFFVSSLQSGVPSRFSGSGSGTDFTLTISSLQPEDFATYYCQQNYIPPITFGQGTRLEIRR
notes: human IgG4 kappa from hybridoma 6.14.2
In the case of B7, the binding result in test [2] is on record as “no binding”. In addition, in test [6], the Kd is below 0.01 nM, the koff was below 5e-06 s⁻¹ and the kon came to 500000 M⁻¹ s⁻¹. In addition, in test [3], the “Mean IC50 … MAdCAM FlpIn CHO Assay” value stood at 0.291 µg/mL. For the same molecule, the “Mean IC50, JY cell adhesion to MAdCAM IgG1 Fc fusion” value (“Mean IC50 … to MAdCAM IgG1 Fc fusion” for short) in test [7] amounted to 0.011 µg/mL. In addition, in test [4], the Kd was at most 0.0077 nM, the koff was at most 1e-05 s⁻¹ and the kon was found to be 130000 M⁻¹ s⁻¹. Further, the “Functional IC50, cynomolgus/human MAdCAM-CHO/JY adhesion assay” value in test [5] stood at 0.53 µg/mL.

B8: modified anti-MAdCAM monoclonal antibody 6.34.2-mod (antibody, human IgG2, kappa, V domains shown)
VH: QVQLVESGGGVVQPGRSLRLSCAASGFTFSSYGMHWVRQAPGKGLEWVAVISNDGNNKYYADSVKGRFTISRDNSKNTLYLQMNSLRAEDTAVYYCARDSTAITYYYYGMDVWGQGTTVTVSS
VL: DIQMTQSPSSLSASVGDRVTITCRASQSISSYLNWYQQKPGKAPKLLIYAASGLKRGVPSRFSGSGSGTDFTLTISSLQPEDFATYYCHQSYSLPFTFGPGTKVDIKR
As for B8, the “MAdCAM IgG1 Fc fusion Assay Mean IC50 (Modified)” value in test [1] was 0.049 µg/mL.

B9: anti-MAdCAM monoclonal antibody 1.7.2 (antibody, human IgG2, kappa, V domains shown)
VH: EVQLVESGGGLVKPGGSLRLSCVASGFTFTNAWMIWVRQAPGKGLEWVGRIKRKTDGGTTDYAAPVKGRFTISRDDSKNTLYLQMNSLKTEDTAVYYCTTGGVAEDYWGQGTLVTVSS
VL: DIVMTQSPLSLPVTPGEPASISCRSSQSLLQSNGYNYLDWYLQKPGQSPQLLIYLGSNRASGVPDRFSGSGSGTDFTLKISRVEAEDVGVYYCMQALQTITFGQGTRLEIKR
notes: human IgG2 kappa from hybridoma 1.7.2; biotinylated for staining of human sections
B9: the binding result in test [2] is reported as “no binding”. In test [6], this molecule displayed a Kd of 0.0236 nM, a koff of 1.3e-07 s⁻¹ and a kon of 5500 M⁻¹ s⁻¹. Besides, the “Mean IC50 … MAdCAM FlpIn CHO Assay” value in test [3] was found to be 0.052 µg/mL. The “Mean IC50 … to MAdCAM IgG1 Fc fusion” value in test [7] came out at 0.03 µg/mL. Also, in test [4], the Kd was at most 0.042 nM, the koff was at most 1e-05 s⁻¹ and the kon was 240000 M⁻¹ s⁻¹.

B10: anti-MAdCAM monoclonal antibody 1.8.2 (antibody, human IgG2, kappa, V domains shown)
VH: B9 VH with A24V
VL: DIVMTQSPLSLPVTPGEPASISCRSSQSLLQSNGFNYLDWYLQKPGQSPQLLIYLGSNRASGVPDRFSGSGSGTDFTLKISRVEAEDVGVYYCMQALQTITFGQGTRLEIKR
notes: human IgG2 kappa from hybridoma 1.8.2
Take B10: in test [2], the binding result was “no binding”. In addition, in test [6], binding was put at a Kd of 0.128 nM, the koff came out at 2.3e-05 s⁻¹ and the kon is 180000 M⁻¹ s⁻¹. In addition, the “Mean IC50 … MAdCAM FlpIn CHO Assay” value in test [3] is 0.424 µg/mL. Besides, in test [7], the “Mean IC50 … to MAdCAM IgG1 Fc fusion” value came out at 0.027 µg/mL. In test [4], the Kd was at most 0.035 nM, the koff is at most 1e-05 s⁻¹ and the kon turned out to be 290000 M⁻¹ s⁻¹.

B11: anti-MAdCAM monoclonal antibody 6.73.2 (antibody, human IgG4, kappa, V domains shown)
VH: EVQLLESGGDLVQPGGSLRLSCAASGFTFRSYAMNWVRQAPGKGLEWVSVISGRGGTTYYADSVKGRFTISRDNSKNTLYLQMNSLRAEDAAVYYCAKIAVAGEGLYYYYGMDVWGQGTTVTVSS
VL: DIQMTQSPSSLSASVGDRVTFTCRASQNITNYLNWYQQKPGKAPKLLIYAASSLPRGVPSRFRGSGSGTDFTLTISSLQPEDFATYYCQQSYSNPPECGFGQGTTLDIKR
notes: human IgG4 kappa from hybridoma 6.73.2
Turning to B11, the binding result in test [2] is “no binding”. Moreover, in test [3], the “Mean IC50 … MAdCAM FlpIn CHO Assay” value is 0.369 µg/mL. Moreover, the “Mean IC50 … to MAdCAM IgG1 Fc fusion” value in test [7] worked out at 0.02 µg/mL. Besides, in test [4], binding was put at a Kd of 0.093 nM, the koff was 0.00013 s⁻¹ and the kon turned out to be 1.4e+06 M⁻¹ s⁻¹.

Values taken from patent US20190300605A1 (Pfizer, published 2019).
